Results reported in patent publication US20250122271A1, “ANTI-DKK1 ANTIBODY, PHARMACEUTICAL COMPOSITION THEREOF, AND USE THEREOF” (SHANGHAI JUNSHI BIOSCIENCES CO., LTD., priority 2022, published 2025).
Substitutions are numbered along the chain they refer to.

T1: human DKK1 antigen (Sino Biological, 10170-H08H) (human, UniProt O94907 32-266)
T1 construct: also called huDKK1; hDKK1
T1 sequence (looked up): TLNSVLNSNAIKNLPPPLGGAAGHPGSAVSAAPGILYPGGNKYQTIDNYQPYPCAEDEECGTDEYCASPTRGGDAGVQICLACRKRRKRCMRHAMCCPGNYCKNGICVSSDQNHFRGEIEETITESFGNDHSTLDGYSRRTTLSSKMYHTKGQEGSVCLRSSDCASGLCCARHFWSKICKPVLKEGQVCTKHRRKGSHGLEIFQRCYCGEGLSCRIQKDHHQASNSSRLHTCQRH

T2: human DKK1 antigen (Sino Biological, 10170-H08H) (human, UniProt O94907 32-266)
T2 chain: T1 sequence (looked up)

B1: hybridoma antibody 11I18.4 (antibody, V domains shown)
VH: EVQLQQSGPELVKPGASVKIFCKTSGYTFTENTMHWVKQTHGKSLEWIGGINPHKGGTSYNQKFKGKATLTVDKSSSTACMELRSLTSEDSTVYYCARDWLGAMDYWGQGTSVTVSP
VL: ETTVTQSPASLSMAIGEKVTIRCITSTDIDDDMNWYQQKPGEPPKLLISEGNTLRPGVPSRFSSSGYGTDFVFTIENMLSEDVADYYCLQSDNLPYTFGGGTKLEIK
notes: Murine hybridoma antibody
B2: hybridoma antibody 19O15.6 (antibody, V domains shown)
VH: QIQLVQSGPELKKPGETVKISCKASGYTFTNHGMNWVKQAPGKGLKWMGWINTNTGEPTYADDFKGRFAFSLETSASTAYLQINNLKNEDTATYFCARRGYGFPYYYTMDYWGQGTSVTVSS
VL: QAVVTQESALTTSPGETVTLTCRSSTGAVTTRNYANWVQEKADHLLTGLIGGTKNRAPGVPARFSGSLIGDKAALTITGAQTEDEAKYFCALWYSNRLVFGGGTKLTVL
notes: Murine hybridoma antibody
B3: hybridoma antibody 18J21.1 (antibody, V domains shown)
VH: QVQLKQSGPGLVQPSQSLSITCTVSGFSLTAFDVHWVRQSPGKGLEWLGVIWIGGTTDYNGAFISRLSISKDNSKSQVFFKMNSLQAKDTAIYYCARKRGNYYNMDYWGQGTSVTVAS
VL: B2 VL with A28T, R32T, A42P, L46F, K54N, K87I, R97H, L98W
notes: Murine hybridoma antibody
B4: hybridoma antibody 17F14.3 (antibody, V domains shown)
VH: QVQLQQPGAELVKPGASVKMSCKASGYTFTSYNMLWVKQTPGQGLEWIGVIFPGNGDTSYNPKFKGKAALTADKSSSTAYMQLSSLTSEDSAVYYCARDGYPSMDYWGQGTSVTVSS
VL: ETIVTQSPASLSVATGEKVTIRCITSTDIDDDMNWYQQKPGEPPKLLISEGNSLRPGVPSRFSSSGYGTDFVFTIENTLSEDVADYYCLQFNNMPLTFGAGTKLELK
notes: Murine hybridoma antibody
B5: hybridoma antibody 7M2.6 (antibody, V domains shown)
VH: EVQLQQSGPELVKPGASVRISCKTSGYTFTEYTMHWVKQSHGKSLEWIGVIDPSNGDTSYNQKFKGRATLTVDKSSSTAYMDLRSLTSEDSALYYCSSTTGPWFACWGQGTLVTVSA
VL: DIQMTQTTSSLSASLGDRVTINCRASQDISNYLNWYQQKPDGTVKLLIYYKSRLHSGVPTRFSGSGSGTDFSLTISNLVQEDIATYFCQQVHTLPPTFGGGTKLEIK
notes: Murine hybridoma antibody
B6: humanized antibody hu64 (antibody, V domains shown)
VH: QVQLVQSGAEVKKPGSSVKVSCKASGYTFTSYNMLWVRQAPGQGLEWMGVIFPGNGDTSYNPKFKGRVTLTADKSSSTAYMELSSLRSEDTAVYYCARDGYPSMDYWGQGTLVTVSS
VL: DTQLTQSPSFLSASVGDRVTITCITSTDIDDDMNWYQQKPGKAPKLLISEGNSLRPGVPSRFSSSGSGTEFTLTISSLQPEDFATYYCLQFNNMPLTFGQGTKLEIKR
B7: humanized antibody hu50 (antibody, V domains shown)
VH: B6 VH with S16A, G44R
VL: B6 VL with T2I, L4M, F10S, L11V, S64G, E70D
B8: humanized antibody hu52 (antibody, V domains shown)
VH: B6 VH with S16A, G44R
VL: B6 VL
B9: humanized antibody hu2 (antibody, V domains shown)
VH: EVQLLQSAAEVKRPGESLRISCKTSGYTFTEYTMHWVRQMPGKELEWMGVIDPSNGDTSYNQKFKGHVTISADKSSSTAYLQWSSLKASDAAMYYCSSTTGPWFASWGQGTLVTVSS
VL: DIQMTQSPSSLSASVGDRVTITCRASQDISNYLNWYQQKPGKAPKLLIYYKSRLHSGVPSRFSGSGSGTDFTLTISSLQPEDFATYYCQQVHTLPPTFGQGTKLEIKR
B10: humanized antibody hu3 (antibody, V domains shown)
VH: B9 VH
VL: EIVMTQSPPTLSLSPGERVTLSCRASQDISNYLNWYQQKPGQAPRLLIYYKSRLHSGIPARFSGSGSGTDFTLTISSLQPEDFAVYYCQQVHTLPPTFGQGTKLEIKR
B11: chi-29 (antibody, V domains shown)
VH: B3 VH
VL: SQAVVTQESALTTSPGETVTLTCRSSTGTVTTTNYANWVQEKPDHLFTGLIGGTNNRAPGVPARFSGSLIGDKAALTITGAQTEDEAIYFCALWYSNHWVFGGGTKLTVL
B12: chi-2 (antibody, V domains shown)
VH: B1 VH
VL: MSSAQFLGLLLLCFQGTRCDIQMTQTTSSLSASLGDRVTINCRASQDISNYLNWYQQKPDGTVKLLIYYKSRLHSGVPTRFSGSGSGTDFSLTISNLVQEDIATYFCQQVHTLPPTFGGGTKLEIK
B13: chi-22 (antibody, V domains shown)
VH: QVTLKESGPGILQPSQTLSLTCSFSGFSLSTSGMGVGWIRQPSGKGLEWLAHIWWDDVKRYNPALKSRLTISKDTSSSQVFLKIASVDTTDTASYYCSRIARSPTGFAYWGQGTL
VL: QIVLTQSPVIMSASPGEKVTMTCSASSSVSYMYWYQQKPGSSPRLLIYDTSNLASGVPVRFSGSGSGTSYSLTISRMEAEDAATYYCQQWSSYPPALTFGAGTKLELK
B14: BHQ-880 (antibody, V domains shown)
VH: QVQLVESGGGLVQPGGSLRLSCAASGFTFSSYWMSWVRQAPGKGLEWVSGISYSGSNTHYADSVKGRFTISRDNSKNTLYLQMNSLRAEDTAVYYCARMGIDLDYWGQGTLVTVSS
VL: DIALTQPASVSGSPGQSITISCTGTSSDVGGFNYVSWYQQHPGKAPKLMIHDGSNRPSGVSNRFSGSKSGNTASLTISGLQAEDEADYYCQSWDVSPITAVFGGGTKLTVLG

The binders below were run against T1, human DKK1 antigen (Sino Biological, …) (assay: competitive ELISA against LRP6 for DKK1).

Row | Binder | binding result
1 | B1 | binds
2 | B2 | binds
3 | B3 | binds
4 | B4 | binds
5 | B5 | binds

Target: T2, human DKK1 antigen (Sino Biological, …)
Assay: ELISA binding

Row | Binder | EC50 [µg/mL]
6 | B6 | 0.0222
7 | B7 | 0.0234
8 | B8 | 0.0238
9 | B9 | 0.01
10 | B10 | 0.0138

Target: T2, human DKK1 antigen (Sino Biological, …)
Assay: ELISA blocking of DKK1-LRP6

Row | Binder | IC50 [µg/mL]
11 | B6 | 0.176
12 | B7 | 0.239
13 | B8 | 0.155
14 | B9 | 0.193
15 | B10 | 0.169

Target: T2, human DKK1 antigen (Sino Biological, …)
Assay: ELISA blocking of DKK1-LRP6
Remark: another data set of the same source

Row | Binder | IC50 [µg/mL]
16 | B11 | 1.43
17 | B12 | 1.79
18 | B13 | ~0.246

Target: T2, human DKK1 antigen (Sino Biological, …)
Assay: ELISA blocking of DKK1-LRP6
Remark: another data set of the same source

Row | Binder | IC50 [µg/mL]
19 | B14 | 1.1
20 | B1 | 0.459
21 | B2 | ~10.1
22 | B4 | 0.529
23 | B5 | 0.892
